# Experimental data taken from publication doi:10.1101/2025.06.16.659917, “MTBP allosterically activates Cdk8-CycC kinase activity” (bioRxiv, 2025).
# B1: Med12(N100) (recombinant Med12 residues 1-100) (domain or fragment, human, UniProt Q93074 1-100, looked up)
# chain: MAAFGILSYEHRPLKRPRLGPPDVYPQDPKQKEDELTALNVKQGFNNQPAVSGDEHGSAKNVSFNPAKISSNFSSIIAEKLRCNTLPDTGRRKPQVNQKD
# notes: Med12, human, residues 1-100; also called Med12-1-100; Med12(1-100); source: Sf9/Hi5 insect cells (baculovirus), co-expressed with Cdk8 and CycC, purified (Ni-NTA via Cdk8); also purified alone
# Biological target: T1, 6xHis-3xFLAG-Cdk8 wt (recombinant, full-length) (human, UniProt P49336 1-464)
# T1 construct: Cdk8, human, full-length; Co-expressed with CycC, alone or together with MTBP(C) or Med12(N100); source: Sf9/Hi5 insect cells (baculovirus), purified (Ni-NTA, dialysis); not shown: 6xHis, N-terminal, kept
# T1 sequence (P49336 whole entry): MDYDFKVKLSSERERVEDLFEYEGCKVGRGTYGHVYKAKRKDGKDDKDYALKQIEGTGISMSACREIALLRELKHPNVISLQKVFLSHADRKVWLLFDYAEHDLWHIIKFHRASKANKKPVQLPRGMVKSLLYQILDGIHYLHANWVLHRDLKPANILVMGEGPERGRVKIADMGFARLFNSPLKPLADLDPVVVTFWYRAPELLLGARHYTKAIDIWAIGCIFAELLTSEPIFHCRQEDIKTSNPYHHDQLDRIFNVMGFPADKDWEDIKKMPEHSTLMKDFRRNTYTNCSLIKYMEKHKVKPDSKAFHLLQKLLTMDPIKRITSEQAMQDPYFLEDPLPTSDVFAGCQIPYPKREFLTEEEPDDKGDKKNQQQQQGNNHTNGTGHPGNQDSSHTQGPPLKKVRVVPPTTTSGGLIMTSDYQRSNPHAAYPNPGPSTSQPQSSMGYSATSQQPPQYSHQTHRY
# Experiment: pull-down; co-expression in Sf9/Hi5 insect cells and co-purification on Ni-NTA agarose via the N-terminal 6His-tag on Cdk8; 20 mM HEPES pH 8.0, 150 mM NaCl, 2% glycerol, 0.1% Triton X-100, 0.5 mM TCEP, 20 mM imidazole; 4°C
# Details: partners not purified
binder,measurement,value
B1,binding result,binds
